Data on 1 protein can be found in article PMC5818509, “Crystal structure of the hydroxylaminopurine resistance protein, YiiM, and its putative molybdenum cofactor-binding catalytic site” (Scientific Reports, 2018).

For orientation: stoichiometry N means the number of molecules, sites or subunits per partner or assembly.

The data set concerns the molecule itself. The data set is described as follows: SEC; gel filtration, Superdex 200 10/300, room temperature, 20 mM Tris pH 8.0, 150 mM NaCl, 5 mM β-mercaptoethanol; BL21-expressed and TP1000-expressed proteins. On the technique in general: SEC sorts molecules by how far they enter the pores of the column.

B1: Escherichia coli YiiM (natural protein)
chain: MRYPVDVYTGKIQAYPEGKPSAIAKIQVDGELMLTELGLEGDEQAEKKVHGGPDRALCHYPREHYLYWAREFPEQAELFVAPAFGENLSTDGLTESNVYMGDIFRWGEALIQVSQPRSPCYKLNYHFDISDIAQLMQNTGKVGWLYSVIAPGKVSADAPLELVSRVSDVTVQEAAAIAWHMPFDDDQYHRLLSAAGLSKSWTRTMQKRRLSGKIEDFSRRLWGK
notes: YiiM, a MOSC family protein of Escherichia coli; gene amplified by PCR from E. coli genomic DNA; calculated molecular weight 25.9 kDa; The BL21- and the TP1000-expressed protein are written as one molecule (both behaved alike); the crystal was grown from the TP1000-expressed protein; also called ecYiiM; ecYiiM^Pi (phosphate complex in the crystal); source: E. coli BL21 (DE3) (pET49b) and E. coli …
As to B1, the “stoichiometry N” value was 2.
